US20210095024A1 (Janssen / Centocor, published 2021)

T1: CEACAM6 overexpressed on HEK293T cells (human, UniProt P40199 35-320)
T1 construct: also called CEACAM6 expressing HEK293T cells
T1 sequence: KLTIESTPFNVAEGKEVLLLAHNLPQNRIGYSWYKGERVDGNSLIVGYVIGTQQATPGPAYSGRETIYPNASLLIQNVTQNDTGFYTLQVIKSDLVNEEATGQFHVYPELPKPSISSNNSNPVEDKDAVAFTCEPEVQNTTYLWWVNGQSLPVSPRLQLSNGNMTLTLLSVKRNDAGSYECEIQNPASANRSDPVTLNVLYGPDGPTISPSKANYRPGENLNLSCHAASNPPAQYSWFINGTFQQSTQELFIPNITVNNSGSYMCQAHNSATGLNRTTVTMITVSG

T2: recombinant CEACAM6 (R&D Systems #3934-CM) (human, UniProt P40199 35-320)
T2 construct: Bought protein
T2 sequence: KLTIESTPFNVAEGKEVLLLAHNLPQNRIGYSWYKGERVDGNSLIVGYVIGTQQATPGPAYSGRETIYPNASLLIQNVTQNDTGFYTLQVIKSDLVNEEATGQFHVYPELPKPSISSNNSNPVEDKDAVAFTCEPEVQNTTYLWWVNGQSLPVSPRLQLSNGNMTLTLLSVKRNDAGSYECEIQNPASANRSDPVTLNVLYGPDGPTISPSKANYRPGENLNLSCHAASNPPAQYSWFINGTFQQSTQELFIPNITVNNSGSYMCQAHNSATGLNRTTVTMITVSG

T3: recombinant CEACAM5 (R&D Systems #4128-CM) (human, UniProt P06731 35-685)
T3 construct: Bought protein
T3 sequence: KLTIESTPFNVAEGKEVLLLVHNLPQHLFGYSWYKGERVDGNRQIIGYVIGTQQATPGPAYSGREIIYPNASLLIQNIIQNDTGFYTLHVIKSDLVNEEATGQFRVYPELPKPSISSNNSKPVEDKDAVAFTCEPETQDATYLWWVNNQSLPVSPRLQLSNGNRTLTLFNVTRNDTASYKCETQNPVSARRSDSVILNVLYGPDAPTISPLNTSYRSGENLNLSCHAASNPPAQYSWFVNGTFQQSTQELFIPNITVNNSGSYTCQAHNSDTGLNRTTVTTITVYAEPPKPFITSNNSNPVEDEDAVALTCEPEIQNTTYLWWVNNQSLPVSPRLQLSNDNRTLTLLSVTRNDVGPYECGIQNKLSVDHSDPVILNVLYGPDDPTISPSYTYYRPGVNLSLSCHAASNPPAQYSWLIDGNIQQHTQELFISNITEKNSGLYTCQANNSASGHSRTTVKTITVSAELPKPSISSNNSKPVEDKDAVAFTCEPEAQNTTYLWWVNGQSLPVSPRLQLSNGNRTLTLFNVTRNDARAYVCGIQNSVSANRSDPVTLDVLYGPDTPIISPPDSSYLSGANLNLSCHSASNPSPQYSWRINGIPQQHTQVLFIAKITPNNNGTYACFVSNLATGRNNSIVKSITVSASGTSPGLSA

T4: full length CEACAM1 overexpressed on HEK293T cells (human, UniProt P13688 35-526)
T4 construct: also called CEACAM-1 expressing HEK293T cells
T4 sequence: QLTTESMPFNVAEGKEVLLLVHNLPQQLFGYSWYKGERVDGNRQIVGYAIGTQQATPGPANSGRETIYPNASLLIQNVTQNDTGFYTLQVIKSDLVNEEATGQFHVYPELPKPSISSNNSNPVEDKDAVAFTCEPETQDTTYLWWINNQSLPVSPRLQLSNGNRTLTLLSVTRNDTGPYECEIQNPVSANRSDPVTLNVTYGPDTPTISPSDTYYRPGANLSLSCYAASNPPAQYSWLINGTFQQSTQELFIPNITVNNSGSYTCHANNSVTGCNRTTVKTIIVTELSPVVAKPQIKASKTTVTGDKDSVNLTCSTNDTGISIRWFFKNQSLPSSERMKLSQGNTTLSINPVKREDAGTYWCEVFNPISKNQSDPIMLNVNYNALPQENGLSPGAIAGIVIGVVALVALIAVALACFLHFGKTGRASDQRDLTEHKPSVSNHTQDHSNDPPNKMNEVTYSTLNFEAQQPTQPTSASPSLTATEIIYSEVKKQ

T5: CEACAM5 overexpressed on HEK293T cells (human, UniProt P06731 35-685)
T5 construct: also called CEACAM5 expressing HEK293T cells
T5 sequence: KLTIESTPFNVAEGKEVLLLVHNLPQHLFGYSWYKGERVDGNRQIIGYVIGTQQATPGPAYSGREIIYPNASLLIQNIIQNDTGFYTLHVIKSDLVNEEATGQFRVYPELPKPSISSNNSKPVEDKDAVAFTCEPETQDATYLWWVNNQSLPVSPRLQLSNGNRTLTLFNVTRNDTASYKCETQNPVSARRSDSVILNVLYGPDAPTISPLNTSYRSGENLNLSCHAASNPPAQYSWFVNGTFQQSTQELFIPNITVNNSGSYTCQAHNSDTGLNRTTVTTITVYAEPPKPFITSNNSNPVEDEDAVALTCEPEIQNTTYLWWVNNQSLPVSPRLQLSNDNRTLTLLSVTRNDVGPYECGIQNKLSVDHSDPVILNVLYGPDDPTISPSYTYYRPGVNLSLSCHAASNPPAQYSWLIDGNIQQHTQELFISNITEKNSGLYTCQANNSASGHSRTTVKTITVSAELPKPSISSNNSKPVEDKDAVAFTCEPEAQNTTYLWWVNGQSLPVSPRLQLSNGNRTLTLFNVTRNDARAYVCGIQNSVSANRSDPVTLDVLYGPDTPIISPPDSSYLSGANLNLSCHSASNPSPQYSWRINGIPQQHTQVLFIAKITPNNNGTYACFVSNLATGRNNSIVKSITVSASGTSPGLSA


Key:
[1] = biological target: T1, CEACAM6 overexpressed on HEK293T cells; test: flow cytometry on HEK293T cells overexpressing CEACAM6
[2] = biological target: T2, recombinant CEACAM6 (R&D Systems …); test: ELISA, plate-coated recombinant CEACAM6
Protocol: (§1) Plates were coated with 50 μl of 1 μg/ml of CEACAM1 (#2244-CM, R&D Systems) overnight at 4° C. The next day, in 16 h, plates were blocked with 200 μl 0.4% bovine serum albumin (BSA) (Sigma, A9647) in PBS for 1 hr at room temperature. Plates were washed once with 300 μl of 0.02% Tween-20 in PBS on a Biotek plate washer. 1/2 log dilutions of CEACAM mAbs starting from 10 μg/ml to 0.0001 ug/ml in 0.4% BSA, or PBS only, were plated for each antibody. 50 μl of each dilution were added to coated plates. Plates were incubated at room temp for approx 30 min. Plates were then washed 3 times with 300 μl of 0.02% Tween-20 in PBS using a Biotek plate washer. […] Plates were incubated at room temp for approximately 30 min. Plates were then washed 3 times with 300 ul of PBS/0.02% Tween-20 on a Biotek plate washer. 50 μl of 3,3′,5,5′-Tetramethylbenzidine (TMB, Sigma T0440) were added, allowed for color development, followed by adding 50 ul of 4N H₂SO₄. Plates were analyzed at 450 nm using EnVision Microplate Reader (PerkinElmer). Isotype control (CNT08939 antibody, specific to RSV virus, having the human IgG2 sigma backbone) was plated on last 3 plates at a concentration 10 μg/ml. Absorbance at 450 nm (FIG. 2) was analyzed using XY scatter plots and non-linear fit curves were generated after log transformation, and EC50 values were calculated, using GraphPad Prism (GraphPad Software, San Diego, Calif.). For several antibodies the EC50 could not be calculated using GraphPad Prism due to poor curve fit; in these cases the EC50 values were visually estimated at the midpoint of the available curve. EC50 values for binding to recombinant CEACAM1 are represented in Table 1.
(§2) 3.1 Binding to recombinant CEACAM5 and CEACAM6. Cross-screening for specificity of purified phage and hybridoma antibodies to recombinant CEACAM5 (R&D Systems #4128-CM) and CEACAM6 (R&D Systems #3934-CM) was performed using ELISA, according to the protocol described in Example 2. Binding curves for binding of mAbs to CEACAM5 are shown on FIG. 5a, and to CEACAM6 on FIG. 5b.

[3] = biological target: T3, recombinant CEACAM5 (R&D Systems …); test: ELISA, plate-coated recombinant CEACAM5
Protocol: as §1, §2

[4] = biological target: T4, full length CEACAM1 overexpressed on …; test: flow cytometry on HEK293T cells overexpressing CEACAM1
Source text: CEACAM1 overexpressing cells were then subcloned and sorted for purified populations of CEACAM1 positive cells, using standard techniques (FIG. 3). These cells were then used to generate binding curves by flow cytometry (FIG. 4).

[5] = biological target: T5, CEACAM5 overexpressed on HEK293T cells; test: flow cytometry on HEK293T cells overexpressing CEACAM5

EC50 [1]	EC50 [2]	EC50 [3]	binding result [1]	EC50 [4]	binding result [5]	Binder
0.0118 µg/mL	6.05 µg/mL	4.32 µg/mL				CCMB18.004 (antibody, V domains shown, also called mAb 6) VH: QVQLVQSGSELKKPGASVKVSCKASGYTLTDYGMNWVRQAPGQGLQWMGWINTNTGNPTYAQGFTGRFVFSLDTSVSTAYLQISSLKTEDTAVYYCARKAIWGWFDPWGQGTLVTVSS VL: not shown
		1.14 µg/mL	no binding			CCMB42.004 (antibody, V domains shown, also called mAb 10) VH: EVQLLESGGGLVQPGGSLRLSCAASGFTFNTYGMSWARQAPGKGLEWVSTISGSGDNTYYADSVKGRFTISRDNSKNTLYLQINSLRAEDTAVYYCAKGGLLWFGELPYPFDYWGQGTLVTVSS VL: QSALTQPASVSGSPGQSITISCTGTSSDVGGYNYVSWYQQHPGKAPKLMIYDVSNRPSGVSNRFSGSKSDNTASLTISGLQAEDEADYYCSSYISTSTLYVFGIGTKVTVL
		4.27 µg/mL	no binding			CCMB20.004 (antibody, V domains shown, also called mAb 7) VH: EVQLLESGGGLVQPGESLRLSCAASGFTFNNYAMTWVRQAPGKGLDWVSSISGTSANTYYADAVKGRFTISRDNSMTTLYLQMNSLRAEDTAVYYCAKPILTLFGELPLDYWGQGTLVTVSS VL: EIVMTQSPATLSVSPGERATLSCRASQSVSSNLAWYQQKTGQAPRLLIYGASTRATAFPARFSGSGSGTEFTLTISSLQSEDFAVYYCQQYNNWPLTFGGGTKVEIK
			no binding	0.0275 µg/mL	no binding	CCMB35.004 (antibody, V domains shown, also called mAb 9) VH: EVQLLESGGGLVQPGESLRLSCAASGLTFSDYAMNWVRQAPGKGLYWVSSISGTGGSTYYADSLKGRFTISRDNSKNTLYLQMNSLRAEDTAVYYCAKDIAVGVTAYFDHWGQGTLVTVSS VL: SSELTQDPAVSVALGQTVRITCQGDSLRTYSASWYQQKPGQAPVLVIYGKNNRPSGIPDRFSGSSSGNTASLTITGAQAEDEADYYCNSRDSRGNLLVVFGGGTKLTVL
	1240 µg/mL			0.0353 µg/mL	no binding	CCMB61.004 (antibody, V domains shown, also called mAb 11) VH: not shown VL: SSELTQDPAVSVALGQTVRITCQGDSLRSYYVSWYQQKPGQAPTLVIYGKNNRPSGIPDRFSGSSSGNTPSLTITGAQAEDEADYYCNSRDSSNHLVVFGGRTKLTVL
		50 µg/mL	no binding			CCMB02.004 (antibody, V domains shown, also called mAb 1) VH: EVQLLESGGGLVQPGGSLRLSCAASGFTFINYAMNWVRLTPGKGLEWVSVISGSGSGTYYADSVKGRFTVSRDNSKNTLYLQMNSLRVEDTAIYYCASPPPMVRGVIITIGNYWGQGALVTVSS VL: not shown
		9.77 µg/mL	no binding			CCMB07.004 (antibody, V domains shown, also called mAb 4) VH: EVQLLESGGGLVQPGGSLRLSCAASGFTFTNYAMNWVRLAPGKGLEWVSVISGSGSGTYYADSVKGRFTVSRDNSKNTLYLQMNSLRVEDTAIYYCASPPPMVRGVIITIGNYWGQGALVTVSS VL: EIVMTQSPATLSVSPGERATLSCRASQSVSVNLAWYQQKPGQAPRLLIYGASTRATSIPTRFSGSGSGTEFTLTISSLQSEDFAVYYCQQYNNWPFTFGPGTKVEIK
0.00515 µg/mL	5 µg/mL	16.4 µg/mL				CCMB03.004 (antibody, V domains shown, also called mAb 2) VH: QVQLVQSGSELRTPGASVKVSCKASGYTFTSYGLSWVRQAPGQGLEWMGWINTNTGNPTYAQGFTGRFVFSLDTSVSTAYLQISSLKAEDTAVYYCARKGIWGPFDYWGQGTLVTVSS VL: not shown
0.0109 µg/mL	5.57 µg/mL	6.46 µg/mL				CCMB04.004 (antibody, V domains shown, also called mAb 3) VH: QVQLVQSGSELKKPGASVKVSCKASGYTFTNYGVNWVRQAPGQGLEWMGWINTNTGNPTYVQGFTGRFVFSLDTSVTTAYLHISSLKAEDTAVYFCARKGIWGPFDHWGQGTLVTVSS VL: not shown
			no binding	0.00419 µg/mL	no binding	CCMB23.004 (antibody, V domains shown, also called mAb 8) VH: QLQLQESGPGLVKPSETLSLTCTVSADSISRTSYYWGWIRQPPGKGLEWIGTIYYSGSTYYNPSLKSRVTISVDTSRNHFSLTLNSVTAADTAVYYCARQIAVGAHRFDYWGQGTLVTVSS VL: DIQLTQSPSFLSASVGDRVTITCRASQGISSYLAWYQQKPGKAPKLLIYAASTLQSGVPSRFSGSGSGTEFTLTISSLQPEDFATYYCQQLNSYPWTFGQGTKVEIK
		1690 µg/mL	no binding			CCMB66.004 (antibody, V domains shown, also called mAb 12) VH: EVQLVQSGAEVKKPGESLKISCKGSGYSFTSYWIGWVRQMPGKGLEWMGIIYPGDSDTRYSPSFQGQVTISADKSISTAYLQWSSLKASDTAMYYCARGYPAPTVNDLDYWGQGTLVTVSS VL: not shown
0.0158 µg/mL	5.13 µg/mL	4.46 µg/mL				CCMB09.004 (antibody, V domains shown, also called mAb 5) VH: QVQLQESGPGLVKPSQTLSLTCTVTGDSIRSGGHYWSWIRQHPGKGLEWIGNIYYSGSTHYNPSLKSRLTISVDTSKNQFSLKVSSVTAADTAVYYCARGRLLWFGEPQDFQHWGQGTLVTVSS VL: not shown
